US20220211858A1, “TUBULAR SUPRAMOLECULAR POLYMERS” (priority 2019, published 2022)

What was measured:
[1] = CD measurement of SAPD stability in plasma/serum environments; type: physicochemical, rat
Procedure: CD measurement of SAPDs in physiological environments. Stock solutions of SAPDs were prepared at 2 mM and aged overnight. The solutions were diluted to 200 μM in 10% fetal bovine serum (FBS), 10% mice plasma and 10% rat plasma, aged overnight before CD measurement. To study the kinetic stability of the assembled SAPDs upon dilution, the stock solutions of SAPD 1 and 2 were diluted to 100 μM, 50 μM, 25 μM, 10 μM, and 5 μM in 10% rat plasma. The CD spectra were recorded at 5 min, 1 h, 4 h, and 12 h. All the CD spectra were recorded from 300 to 450 nm using a 1 mm path length quartz cell. The spectra were collected and normalized from ellipticity (mdeg) to molar ellipticity (deg·cm2·dmol^−1).
Stability of SAPDs in Protein Environments. The interactions of nanoparticles with serum proteins are known to impact the disassociation of supramolecular assemblies in biologically relevant environment. To assess the stability of assembled SAPDs in more complex biological media, we performed CD experiments to investigate their long-term stability in various serum environments. SAPDs solutions (2 mM) were diluted using rat plasma (FIG. 21C), fetal bovine serum (FBS), and mice plasma to yield a final concentration of 200 μM, which were then aged overnight before CD measurement was taken. […] We also performed experiments to assess their kinetic stability upon plasma dilution, mimicking the dissociation process of SPs after intravenous injection. Solutions of SAPD 1 and 2 (2 mM) were diluted to 100 μM, 50 μM, 25 μM, 10 μM, and 5 μM in rat plasma, and time-dependent CD spectra were recorded at 5 min, 1 h, 4 h, and 12 h. […] At 12 h, the decrease reached 22% and 33%, respectively.

HT-29 cells = assay: Antitumor efficacy of SAPDs at near MTD on a HT-29 tumor model; conditions: day 28; SAPD 1 12 mg/kg, SAPD 2-4 36 mg/kg i.v. days 1, 5, 9; irinotecan 100 mg/kg i.p. days 1, 8, 15
Procedure: Antitumor efficacy study of SAPDs at near MTD on a HT-29 tumor model. HT-29 tumor model was established as described above. When the averaged tumor size reached 70-110 mm^3, mice were randomly divided into six groups (n=5 for each group). Four different SAPDs were all i.v. dosed at near or slightly lower than their estimated MTDs. […] The irinotecan (i.p. injection, 100 mg/kg at days 1, 8 and 15) and the PBS groups were used as controls. All other protocols were similar to those in the above-mentioned efficacy study.

[2] = Circulation studies of SAPDs in rats; type: in vivo, Sprague Dawley (SD) rats; conditions: 10 mg/kg i.v.
Procedure: Circulation studies of SAPDs in rats. Female Sprague Dawley (SD) Rats (200-250 g) were randomly grouped into four groups with three rats in each group. SAPDs were all intravenously (i.v.) dosed at 10 mg/kg (CPT equivalent). The dosing volumes of SAPDs were estimated by a ratio of 1 mL for a 200 g rat. The blood samples were collected at 5 min, 15 min, 30 min, 1 h, 2 h, 4 h, 8 h, and 12 h, which were immediately centrifuged to take plasma for further analysis and stored at −80° C. The plasma proteins were precipitated using similar protocols as mentioned above in drug release section and the determination of SAPDs and free CPT in the plasma by UPLC also used the same conditions.
Estimation of SAPD concentration in plasma upon injection. To calculation the concentration after dilution, we simply set the following parameters: body weight of mice (20 g), dosing volume of mice (200 μL), blood volume of mice (1.8 mL), body weight of rat (200 g), dosing volume of mice (1 mL), blood volume of mice (18 mL) and the dosage for both mice and rats (10 mg/kg).

[3] = Maximum tolerated dose (MTD) dose escalation study; type: in vivo, athymic nude mice; conditions: for Maximum % BW loss: n=3
Procedure: Maximum tolerated dose (MTD) studies. MTD of SAPD 1 has been previously determined in our lab (Table 1). MTDs of other SAPDs were determined by dose escalation studies in healthy female athymic nude mice (Charles River, 12-13 weeks old). A single intravenous (i.v.) injection of SAPD was dosed at day 1 and the body weights of each mouse (n=3) were recorded every day for six days and every the other day until two weeks. The dosing volume was determined based upon a ratio of 200 μL for a 20 g mouse. Doses of SAPDs used in the studied were 108, 72, 54, 45, 36 and 18 mg/kg (CPT equivalent).

## CC[C@]1(OC(=O)OCCSSC[C@@H](NC(C)=O)C(=O)N[C@@H](CCCCNC(=O)[C@@H](CSSCCOC(=O)O[C@]2(CC)C(=O)OCc3c2cc2n(c3=O)Cc3cc4ccccc4nc3-2)NC(C)=O)C(=O)N[C@@H](CCCCNC(=O)CCOCCOCCOCCOCCOC)C(=O)N[C@@H](CCCCNC(=O)CCOCCOCCOCCOCCOC)C(N)=O)C(=O)OCc2c1cc1n(c2=O)Cc2cc3ccccc3nc2-1 [TT 1]
[1]; 5 μM in rat plasma, 5 min
  drop of CD absorption at 389 nm: 15%
[1]; 5 μM in rat plasma, 12 h
  drop of CD absorption at 389 nm: 33%
[1]; 10 μM in rat plasma, 5 min
  drop of CD absorption at 389 nm: 10%
[1]; 10 μM in rat plasma, 12 h
  drop of CD absorption at 389 nm: 22%
[1]; 200 μM in rat plasma, FBS, mice plasma, aged overnight
  change of CD absorptions versus aqueous solution: no noticeable changes
[1]; rat plasma, concentrations above 25 μM
  stability upon dilution over time: highly stable
HT-29 cells
  mean tumor volume: 172 mm^3
[2]; 5 min
  CPT remained in the bounded form: 86%
[2]; 1 h
  total CPT concentration in plasma: 15.3 µM
  total CPT retained in the conjugate form: more than 72%
[2]; 2 h
  total CPT concentration in plasma: 8.1 µM
[3]; female, athymic nude, mouse, in vivo, iv, single i.v. injection, CPT equivalent, healthy athymic nude mice
  MTD: 24 mg/kg
[3]; single i.v. dose 4.5 mg/kg
  Survival/Total: 3/3
[3]; single i.v. dose 4.5 mg/kg (CPT equivalent)
  Maximum % BW loss: 0%
[3]; single i.v. dose 9 mg/kg
  Survival/Total: 3/3
  day of maximum BW loss: 1 days
[3]; single i.v. dose 9 mg/kg (CPT equivalent)
  Maximum % BW loss: 5.1%
[3]; single i.v. dose 15 mg/kg
  Survival/Total: 3/3
  day of maximum BW loss: 2 days
[3]; single i.v. dose 15 mg/kg (CPT equivalent)
  Maximum % BW loss: 5.0%
[3]; single i.v. dose 18 mg/kg
  Survival/Total: 3/3
  day of maximum BW loss: 1 days
[3]; single i.v. dose 18 mg/kg (CPT equivalent)
  Maximum % BW loss: 6.5%
[3]; single i.v. dose 24 mg/kg
  Survival/Total: 3/3
  day of maximum BW loss: 3 days
[3]; single i.v. dose 24 mg/kg (CPT equivalent)
  Maximum % BW loss: 9.8%
[3]; single i.v. dose 30 mg/kg
  Survival/Total: 1/3
  day of maximum BW loss: 4 days
[3]; single i.v. dose 30 mg/kg (CPT equivalent)
  Maximum % BW loss: 20.6%
[3]; single i.v. dose 36 mg/kg
  Survival/Total: 0/3
  day of maximum BW loss: 3 days
[3]; single i.v. dose 36 mg/kg (CPT equivalent)
  Maximum % BW loss: 21.2%
[3]; single i.v. dose 54 mg/kg
  Survival/Total: 0/3
  day of maximum BW loss: 3 days
[3]; single i.v. dose 54 mg/kg (CPT equivalent)
  Maximum % BW loss: 20%
